One data set deals with SHP2-C SH2. The experiment in a line: SH2 binding enrichment of the phosphorylated peptide, bacterial display (enrichment ratio); higher = better substrate or ligand; peptides without Tyr show the background.
The target of the next data set is c-Src SH2. The description is as above.
For the next data set, the target named is Grb2 SH2 (UniProt P62993). Described as above.
The next data set has as its system AncSZ. The experiment in a line: phosphorylation enrichment, bacterial display (enrichment ratio); higher = better substrate or ligand; peptides without Tyr show the background.
The target in a further data set is EPHB2 (UniProt P29323). Described as above.
A further data set concerns the target EPHB1 (UniProt P54762). Described as above.
For a further data set, the target named is FGFR3 (UniProt P22607). The data set is described as above.
Another data set concerns the target Jak2 (UniProt O60674). Described as above.
The next data set has as its target MERTK (UniProt Q12866). The data set is described as above.
The next data set concerns c-Abl (mouse). Described as above.
The target of another data set is Fes (UniProt P07332). Described as above.
A further data set has as its target FGFR1 (UniProt P11362). The data set is described as above.
A further data set has as its target Fyn (UniProt P06241). The data set is described as above.
For a further data set, the system named is c-Src. The description is as above.
For a further data set, the target named is Hck (UniProt P08631). The data set is described as above.
Another data set has as its system Fer (mouse). Described as above.
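For SH2 binding enrichment of the phosphorylated peptide, bacterial display in this document: peptide library displayed on the E. coli surface as eCPX fusions, selected cells deep-sequenced, score is each peptide's frequency after selection divided by its frequency in the input.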
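For phosphorylation enrichment, bacterial display in this document: 11-residue human phosphosite peptides and single-mutation variants displayed on the E. coli surface, counted by deep sequencing, each peptide's frequency after selection divided by its frequency in the unselected input library; frequency after pTyr selection over input frequency; kinase dosed for 20-30% of maximal phosphorylation in three min.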

Grb2 SH2, sequence (P62993 whole entry, looked up): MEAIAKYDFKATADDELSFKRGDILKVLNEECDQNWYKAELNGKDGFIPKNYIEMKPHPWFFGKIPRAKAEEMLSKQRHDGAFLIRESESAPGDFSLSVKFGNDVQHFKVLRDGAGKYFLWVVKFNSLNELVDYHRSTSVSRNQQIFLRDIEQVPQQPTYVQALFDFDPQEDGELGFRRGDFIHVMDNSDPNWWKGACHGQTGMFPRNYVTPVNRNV
Jak2, sequence (O60674 whole entry, looked up): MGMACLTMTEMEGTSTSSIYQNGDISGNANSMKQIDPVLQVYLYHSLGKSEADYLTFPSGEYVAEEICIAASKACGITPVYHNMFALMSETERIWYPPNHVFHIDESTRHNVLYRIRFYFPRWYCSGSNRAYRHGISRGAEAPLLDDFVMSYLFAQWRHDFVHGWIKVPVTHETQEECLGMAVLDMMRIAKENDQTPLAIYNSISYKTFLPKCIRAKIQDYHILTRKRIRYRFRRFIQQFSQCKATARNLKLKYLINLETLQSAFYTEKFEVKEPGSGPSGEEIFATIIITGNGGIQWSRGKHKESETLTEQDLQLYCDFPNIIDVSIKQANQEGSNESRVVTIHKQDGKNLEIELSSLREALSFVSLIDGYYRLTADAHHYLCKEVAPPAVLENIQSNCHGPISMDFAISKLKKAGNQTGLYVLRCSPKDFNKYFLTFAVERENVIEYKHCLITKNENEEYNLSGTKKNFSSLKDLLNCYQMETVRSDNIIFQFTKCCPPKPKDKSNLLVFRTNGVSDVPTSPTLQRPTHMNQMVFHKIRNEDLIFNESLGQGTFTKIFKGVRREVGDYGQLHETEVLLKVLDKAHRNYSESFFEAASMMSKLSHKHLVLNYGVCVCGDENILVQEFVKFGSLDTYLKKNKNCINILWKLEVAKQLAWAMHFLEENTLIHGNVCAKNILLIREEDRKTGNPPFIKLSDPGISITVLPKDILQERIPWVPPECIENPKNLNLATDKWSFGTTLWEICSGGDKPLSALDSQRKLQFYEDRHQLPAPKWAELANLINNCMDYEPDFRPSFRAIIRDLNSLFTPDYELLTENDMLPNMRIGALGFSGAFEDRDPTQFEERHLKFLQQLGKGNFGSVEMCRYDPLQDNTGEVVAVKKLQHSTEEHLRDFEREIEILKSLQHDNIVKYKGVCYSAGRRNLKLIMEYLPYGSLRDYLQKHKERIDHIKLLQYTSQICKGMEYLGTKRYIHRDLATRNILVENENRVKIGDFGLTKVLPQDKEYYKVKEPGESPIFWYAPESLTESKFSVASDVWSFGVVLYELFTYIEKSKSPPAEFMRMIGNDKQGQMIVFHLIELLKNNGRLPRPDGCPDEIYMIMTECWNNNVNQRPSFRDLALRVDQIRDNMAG
EPHB1, sequence (P54762 whole entry, looked up): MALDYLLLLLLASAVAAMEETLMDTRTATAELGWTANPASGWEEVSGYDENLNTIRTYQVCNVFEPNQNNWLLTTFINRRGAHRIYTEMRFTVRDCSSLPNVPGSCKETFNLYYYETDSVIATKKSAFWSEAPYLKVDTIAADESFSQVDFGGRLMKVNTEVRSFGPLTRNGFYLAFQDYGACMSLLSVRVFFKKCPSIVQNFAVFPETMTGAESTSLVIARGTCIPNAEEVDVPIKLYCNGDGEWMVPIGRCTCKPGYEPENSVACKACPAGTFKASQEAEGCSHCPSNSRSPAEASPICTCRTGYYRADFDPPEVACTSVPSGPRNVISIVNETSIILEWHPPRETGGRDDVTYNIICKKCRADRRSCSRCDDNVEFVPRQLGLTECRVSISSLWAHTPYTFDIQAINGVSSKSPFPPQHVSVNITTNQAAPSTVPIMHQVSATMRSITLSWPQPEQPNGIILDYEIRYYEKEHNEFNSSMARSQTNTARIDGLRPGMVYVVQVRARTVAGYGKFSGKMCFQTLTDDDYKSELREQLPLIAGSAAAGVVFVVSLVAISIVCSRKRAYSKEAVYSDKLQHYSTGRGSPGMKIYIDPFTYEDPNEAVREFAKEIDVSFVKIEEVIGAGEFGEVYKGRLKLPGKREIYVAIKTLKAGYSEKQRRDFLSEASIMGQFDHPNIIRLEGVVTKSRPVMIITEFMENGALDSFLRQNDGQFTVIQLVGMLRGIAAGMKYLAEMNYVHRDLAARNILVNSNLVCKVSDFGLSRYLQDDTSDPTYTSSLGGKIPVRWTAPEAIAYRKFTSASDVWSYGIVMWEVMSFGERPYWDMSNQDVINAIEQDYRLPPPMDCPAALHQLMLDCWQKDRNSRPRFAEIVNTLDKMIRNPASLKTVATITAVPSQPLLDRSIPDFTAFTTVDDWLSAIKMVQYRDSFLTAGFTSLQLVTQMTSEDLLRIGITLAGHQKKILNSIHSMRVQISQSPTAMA
Hck, sequence (P08631 whole entry, looked up): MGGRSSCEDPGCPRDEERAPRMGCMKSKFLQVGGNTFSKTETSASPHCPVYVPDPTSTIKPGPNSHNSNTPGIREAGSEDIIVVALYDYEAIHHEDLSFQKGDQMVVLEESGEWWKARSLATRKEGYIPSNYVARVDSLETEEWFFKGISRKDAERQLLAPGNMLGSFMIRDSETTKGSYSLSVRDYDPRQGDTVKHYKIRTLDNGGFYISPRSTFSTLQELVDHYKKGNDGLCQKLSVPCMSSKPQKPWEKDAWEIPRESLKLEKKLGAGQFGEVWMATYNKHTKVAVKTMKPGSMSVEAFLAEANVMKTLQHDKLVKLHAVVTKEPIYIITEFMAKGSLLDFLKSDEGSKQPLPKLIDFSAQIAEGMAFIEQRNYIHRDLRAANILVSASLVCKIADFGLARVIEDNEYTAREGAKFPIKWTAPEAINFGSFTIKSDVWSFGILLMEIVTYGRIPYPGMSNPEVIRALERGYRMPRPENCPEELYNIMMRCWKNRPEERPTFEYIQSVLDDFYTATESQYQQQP
FGFR1, sequence (P11362 whole entry, looked up): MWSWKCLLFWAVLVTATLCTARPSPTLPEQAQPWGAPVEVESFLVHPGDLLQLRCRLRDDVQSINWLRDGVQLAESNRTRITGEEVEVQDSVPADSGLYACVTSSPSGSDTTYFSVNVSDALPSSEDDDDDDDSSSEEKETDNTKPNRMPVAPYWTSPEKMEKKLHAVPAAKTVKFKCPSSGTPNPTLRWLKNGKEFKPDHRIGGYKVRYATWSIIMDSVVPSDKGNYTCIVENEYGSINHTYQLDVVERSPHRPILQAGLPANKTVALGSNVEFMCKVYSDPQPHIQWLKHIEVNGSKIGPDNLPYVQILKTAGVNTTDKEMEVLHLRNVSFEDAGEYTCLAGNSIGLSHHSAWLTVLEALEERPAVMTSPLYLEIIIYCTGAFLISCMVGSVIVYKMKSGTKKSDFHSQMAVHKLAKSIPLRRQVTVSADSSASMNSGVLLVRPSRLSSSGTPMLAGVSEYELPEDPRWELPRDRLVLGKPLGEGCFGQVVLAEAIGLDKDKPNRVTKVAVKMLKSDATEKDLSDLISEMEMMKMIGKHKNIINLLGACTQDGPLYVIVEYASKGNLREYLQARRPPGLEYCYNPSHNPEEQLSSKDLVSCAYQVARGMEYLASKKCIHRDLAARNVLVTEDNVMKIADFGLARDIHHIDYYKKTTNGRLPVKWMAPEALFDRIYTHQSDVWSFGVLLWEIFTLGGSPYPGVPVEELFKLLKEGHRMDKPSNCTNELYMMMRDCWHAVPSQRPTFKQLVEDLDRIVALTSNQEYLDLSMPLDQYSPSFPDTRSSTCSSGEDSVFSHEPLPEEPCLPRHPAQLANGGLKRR
MERTK, sequence (Q12866 whole entry, looked up): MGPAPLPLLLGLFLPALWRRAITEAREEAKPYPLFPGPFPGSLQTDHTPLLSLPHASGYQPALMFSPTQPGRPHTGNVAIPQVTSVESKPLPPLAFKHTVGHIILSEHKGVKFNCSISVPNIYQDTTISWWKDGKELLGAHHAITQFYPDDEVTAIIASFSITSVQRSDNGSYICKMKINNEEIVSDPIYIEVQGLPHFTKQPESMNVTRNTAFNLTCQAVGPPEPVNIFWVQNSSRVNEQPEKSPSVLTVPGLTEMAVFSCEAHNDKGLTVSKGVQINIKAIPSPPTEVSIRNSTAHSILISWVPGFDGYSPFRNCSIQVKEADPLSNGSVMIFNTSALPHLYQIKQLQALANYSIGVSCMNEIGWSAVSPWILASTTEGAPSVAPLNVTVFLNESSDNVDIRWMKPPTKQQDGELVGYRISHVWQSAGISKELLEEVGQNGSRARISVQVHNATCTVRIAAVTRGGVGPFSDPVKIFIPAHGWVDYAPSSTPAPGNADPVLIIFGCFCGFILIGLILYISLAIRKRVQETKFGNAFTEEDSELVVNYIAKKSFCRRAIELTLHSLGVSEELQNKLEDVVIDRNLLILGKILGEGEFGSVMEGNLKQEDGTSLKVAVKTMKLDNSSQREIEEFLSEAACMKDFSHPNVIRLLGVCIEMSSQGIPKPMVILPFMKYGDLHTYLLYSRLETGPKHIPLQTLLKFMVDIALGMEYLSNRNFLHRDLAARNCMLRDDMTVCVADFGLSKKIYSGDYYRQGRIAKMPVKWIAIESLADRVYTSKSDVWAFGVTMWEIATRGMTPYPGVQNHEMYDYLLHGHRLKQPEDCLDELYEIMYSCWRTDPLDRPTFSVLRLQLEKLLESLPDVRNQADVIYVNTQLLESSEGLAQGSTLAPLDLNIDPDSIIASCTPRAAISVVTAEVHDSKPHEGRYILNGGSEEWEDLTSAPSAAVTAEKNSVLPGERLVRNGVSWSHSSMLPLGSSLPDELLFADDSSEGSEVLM

Turning to QQTYTYDSGIH [JUP_Y22], the SH2 binding enrichment with SHP2-C SH2 stood at 0.535; with c-Src SH2, 0.744; with Grb2 SH2, 1. Also, the phosphorylation enrichment turned out to be 1.45 in the data set with AncSZ; 1.5 in the data set with EPHB2; 1.09 with EPHB1; 1.38 with FGFR3; 1.2 in the data set with Jak2; 3.33 with MERTK. Moreover, the phosphorylation enrichment with c-Abl (mouse) turned out to be 0.841; with Fes, 1.35; in the data set with FGFR1, 1.12; in the data set with Fyn it was 1.65; in the data set on c-Src, 1.41; in the data set with Hck it was 1.61. The phosphorylation enrichment in the data set on Fer (mouse) was found to be 0.454.

For the sequence TDLAFYLVREG [ASL_Y376_K380E_YF], the SH2 binding enrichment with SHP2-C SH2 was determined as 0.675; with c-Src SH2, 0.612; with Grb2 SH2, 0.634. Moreover, the phosphorylation enrichment with AncSZ worked out at 1.28; with EPHB2, 0.703; in the data set with EPHB1 it was 0.709; with FGFR3, 1.01; with Jak2 it was 1.24; with MERTK, 0.501. Further, the phosphorylation enrichment in the data set with c-Abl (mouse) is 0.85; in the data set with Fes, 1.59; in the data set with FGFR1, 0.574; with Fyn it was 0.437; with c-Src, 0.519; in the data set with Hck, 0.546. In the data set with Fer (mouse), the phosphorylation enrichment stood at 0.555.

SRDPFYEMLTA [CYTH1_Y382_A386T]: the results for the SH2 binding enrichment with SHP2-C SH2, in the data set with c-Src SH2 and in the data set with Grb2 SH2 were 0.747, 2.25 and 0.958, respectively. For the same sequence, the phosphorylation enrichment came to 1.25 with AncSZ; 2.82 with EPHB2; 4.93 with EPHB1; 4.25 in the data set with FGFR3; 0.975 in the data set with Jak2; 8.32 with MERTK. In addition, the phosphorylation enrichment worked out at 0.71 in the data set with c-Abl (mouse); 1.07 in the data set with Fes; 7.02 in the data set with FGFR1; 2.38 with Fyn; 3.17 with c-Src; 5.45 in the data set with Hck. Also, the phosphorylation enrichment in the data set on Fer (mouse) stood at 11.

As for SSWPDYVRPLP [HSPB1_Y54_G53D], the figures for the SH2 binding enrichment in the data set with SHP2-C SH2, with c-Src SH2 and with Grb2 SH2 were 0.71, 0.489 and 0.974, respectively. Further, the phosphorylation enrichment in the data set on AncSZ came out at 4.98; in the data set with EPHB2, 0.599; with EPHB1, 1.57; in the data set with FGFR3, 1.6; with Jak2, 7.67; with MERTK it was 0.437. For the same sequence, the phosphorylation enrichment with c-Abl (mouse) amounted to 0.808; with Fes it was 0.93; with FGFR1 it was 2.49; with Fyn, 0.442; in the data set on c-Src it was 0.475; with Hck, 0.511. Besides, the phosphorylation enrichment in the data set with Fer (mouse) is 0.54.

Take ASELGYQFQAI [UROD_Y133_V134Q]: the SH2 binding enrichment with SHP2-C SH2 amounted to 0.652; with c-Src SH2 it was 0.826; in the data set with Grb2 SH2, 0.795. In addition, the phosphorylation enrichment in the data set on AncSZ stood at 0.77; with EPHB2, 0.5; with EPHB1, 0.362; with FGFR3 it was 0.59; with Jak2 it was 0.679; with MERTK it was 0.387. In addition, the phosphorylation enrichment with c-Abl (mouse) was determined as 0.596; with Fes, 0.92; in the data set with FGFR1, 0.525; with Fyn, 0.407; in the data set on c-Src it was 0.46; with Hck, 0.468. For the same sequence, in the data set on Fer (mouse), the phosphorylation enrichment stood at 0.493.

Take TYGVVYKARNK [CDK2_Y19]: the SH2 binding enrichment in the data set with SHP2-C SH2 worked out at 0.253; in the data set with c-Src SH2, 0.548; with Grb2 SH2, 0.788. The phosphorylation enrichment was 1.18 with AncSZ; 0.563 with EPHB2; 0.369 with EPHB1; 0.515 with FGFR3; 0.485 with Jak2; 0.41 with MERTK. The phosphorylation enrichment was 0.272 with c-Abl (mouse); 0.691 with Fes; 0.354 with FGFR1; 1.81 with Fyn; 1.33 in the data set with c-Src; 1.47 with Hck. Also, the phosphorylation enrichment in the data set with Fer (mouse) is 0.46.

For the sequence QYQEKYKQMEQ [HCN4_Y531_V534M], the SH2 binding enrichment in the data set with SHP2-C SH2 was 0.705; with c-Src SH2, 0.436; with Grb2 SH2, 0.891. The phosphorylation enrichment in the data set on AncSZ was found to be 0.99; with EPHB2 it was 0.507; with EPHB1, 0.61; in the data set with FGFR3 it was 0.827; in the data set with Jak2, 0.684; in the data set with MERTK, 0.287. In addition, the phosphorylation enrichment in the data set on c-Abl (mouse) stood at 0.584; with Fes it was 1.23; with FGFR1, 0.618; in the data set with Fyn it was 0.547; in the data set on c-Src, 0.374; with Hck, 0.431. In addition, the phosphorylation enrichment in the data set on Fer (mouse) is 0.632.

In the case of EKLIQYCQSKG [AKR1B1_Y199], the SH2 binding enrichment with SHP2-C SH2 came to 0.466; with c-Src SH2, 0.572; with Grb2 SH2, 0.854. Also, the phosphorylation enrichment with AncSZ was determined as 0.52; with EPHB2, 0.563; with EPHB1, 0.487; in the data set with FGFR3 it was 0.493; with Jak2 it was 0.573; with MERTK it was 0.423. Further, the phosphorylation enrichment came out at 0.462 in the data set with c-Abl (mouse); 0.644 in the data set with Fes; 0.44 in the data set with FGFR1; 0.448 in the data set with Fyn; 0.479 in the data set with c-Src; 0.446 with Hck. Further, the phosphorylation enrichment in the data set on Fer (mouse) stood at 0.425.
